As a reminder, the stoichiometry N is the number of molecules, sites or subunits per partner or assembly.

This experiment addresses Recombinant hemagglutinin from influenza A/California/04/2009 (H1N1), amino acids 1-519 (Influenza A/California/04/2009 (H1N1)) (UniProt C3W5S1). Put plainly: SEC. (SEC sorts molecules by how far they enter the pores of the column.)

As for “Recombinant hemagglutinin from influenza A/California/04/2009 (H1N1), amino acids 1-519 (from UniProt C3W5S1 1-519) (domain or fragment)”, the stoichiometry N worked out at 3.
